Test results from PMC10141391, “Structural Analysis of Bacillus subtilis Sigma Factors” (Microorganisms, 2023).

Target: T1, SigE^17–133 (B. subtilis SigE residues 17–133) (B. subtilis, 15N-labelled)
T1 construct: Cloned BamHI/XhoI into pET28-TxrA (His tag, thioredoxin, TEV site)
T1 chain: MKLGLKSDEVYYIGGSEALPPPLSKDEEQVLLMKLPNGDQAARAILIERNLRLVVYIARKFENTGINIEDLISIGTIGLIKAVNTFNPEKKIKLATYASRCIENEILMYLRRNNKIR
Assay: NMR titration; 1H-15N HSQC chemical shift perturbation; 100 uM 15N-labelled SigE 17-133 alone and with a 2-fold excess of unlabelled CsfB A48E; 298 K, 700 MHz; 50 mM HEPES pH 7.5, 150 mM KCl, 0.5 mM TCEP
Settings: both partners purified

- binding result: binds
B1: CsfB^A48E (natural protein, B. subtilis)
chain: MDETVKLNHTCVICDQEKNRGIHLYTKFICLDCERKVISTSTSDPDYEFYVKKLKSIHTPPLYS
notes: Anti-sigma factor CsfB (Gin), B. subtilis, with the stabilising mutation A48E; In pNIC28 (TEV-cleavable N-terminal His tag); also called CsfB/Gin; Gin; source: E. coli BL21(DE3)pLysS, purified (IMAC, SEC)
